Laboratory results from paper PMC10844685.

Molecular target: pyruvate kinase isoform M2 (PKM2) (human (endogenous in MDA-MB-231 and Hs578T)) (UniProt P14618)
Assay: native gel or EMSA; total protein of MDA-MB-231 and Hs578T cells, not heat-denatured, non-denaturing loading buffer, native PAGE running buffer, western blot with anti-PKM2; cells with miR-29c-3p inhibitor, with or without TRIM9 knockdown

Sequence of pyruvate kinase isoform M2 (PKM2), P14618 1-531 (enzyme; other documents disagree on this pair) (P14618 whole entry, canonical isoform): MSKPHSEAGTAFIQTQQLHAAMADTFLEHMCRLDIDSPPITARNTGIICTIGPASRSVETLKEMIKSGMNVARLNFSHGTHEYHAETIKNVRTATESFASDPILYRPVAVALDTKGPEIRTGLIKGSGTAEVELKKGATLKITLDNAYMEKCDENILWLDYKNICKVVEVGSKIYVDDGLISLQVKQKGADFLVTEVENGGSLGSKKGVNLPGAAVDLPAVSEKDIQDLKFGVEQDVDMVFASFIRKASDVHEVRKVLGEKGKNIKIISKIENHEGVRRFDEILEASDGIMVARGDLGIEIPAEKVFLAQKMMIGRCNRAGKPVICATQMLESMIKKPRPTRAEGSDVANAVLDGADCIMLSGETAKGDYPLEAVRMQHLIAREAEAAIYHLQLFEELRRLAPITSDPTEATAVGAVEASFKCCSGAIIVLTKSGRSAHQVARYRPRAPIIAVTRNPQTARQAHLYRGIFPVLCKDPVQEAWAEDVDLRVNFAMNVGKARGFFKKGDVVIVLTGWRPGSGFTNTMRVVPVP

## pyruvate kinase isoform M2 (PKM2), P14618 1-531 (enzyme; other documents disagree on this pair)
  stoichiometry N: 2
